B1: bJun BiFC construct (domain or fragment, UniProt P05412 257-318, looked up)
chain: RKRMRNRIAASKCRKRKLERIARLEEKVKTLKAQNSELASTANMLREQVAQLKQKVMNHVNS
notes: transcription factor Jun, the construct called bJun

Experiments:
[1] = target: VE-cadherin-VC (VE-cadherin ectodomain and transmembrane domain fused to the C-terminal Venus fragment) (human) (UniProt P33151); experiment: split reporter (BiFC, NanoBiT); Venus BiFC (VN155 I152L with VC155 A206K) in live HEK293T cells, 0.5 ug of each construct, confocal microscopy 24 h after transfection; mean BiFC intensity per cell or BiFC/DeepRed ratio, compared with control pairings
[2] = target: T1, bFos BiFC construct (UniProt P01100 118-210); experiment: split reporter (BiFC, NanoBiT); validation of the quantitative BiFC analysis with bJun/bFos (positive) and bJun/bΔFos (negative); BiFC/DeepRed ratio and mean BiFC intensity; details in S1-S4 Figs; settings: partners not purified
T1 construct: transcription factor Fos, the construct called bFos
T1 sequence (P01100 118-210): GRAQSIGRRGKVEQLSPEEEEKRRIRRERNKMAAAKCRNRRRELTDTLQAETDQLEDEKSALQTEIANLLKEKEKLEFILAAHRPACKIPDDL

VE-cadherin-VC (VE-cadherin ectodomain and transmembrane domain fused to the C-terminal Venus fragment) (human), sequence (P33151 26-625): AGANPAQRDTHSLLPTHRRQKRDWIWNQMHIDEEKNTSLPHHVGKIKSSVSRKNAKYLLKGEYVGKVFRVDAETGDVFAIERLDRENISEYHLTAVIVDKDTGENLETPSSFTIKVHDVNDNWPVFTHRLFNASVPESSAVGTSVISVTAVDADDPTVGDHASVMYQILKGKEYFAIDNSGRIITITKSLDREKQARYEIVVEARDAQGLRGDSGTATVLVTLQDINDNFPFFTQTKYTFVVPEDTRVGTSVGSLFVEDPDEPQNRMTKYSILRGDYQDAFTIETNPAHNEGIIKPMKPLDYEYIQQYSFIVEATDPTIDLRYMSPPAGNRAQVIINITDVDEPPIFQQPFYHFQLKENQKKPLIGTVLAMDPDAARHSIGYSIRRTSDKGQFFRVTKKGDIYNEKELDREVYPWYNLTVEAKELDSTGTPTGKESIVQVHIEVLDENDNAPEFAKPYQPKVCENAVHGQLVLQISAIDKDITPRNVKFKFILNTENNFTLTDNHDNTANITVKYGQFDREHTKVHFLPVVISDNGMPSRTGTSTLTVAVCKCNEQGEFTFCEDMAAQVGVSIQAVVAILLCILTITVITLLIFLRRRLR

Molecule	S/N (median BiFC/DeepRed ratio over that of the negative pairing) [1]	fold mean BiFC value over controls [1]	S/N (median BiFC/DeepRed ratio of the positive pairing over that of the negative pairing bJun/bΔFos) [2]	fold difference in mean BiFC fluorescence intensity over bJun/bΔFos [2]
VE-PTP-VN (vascular endothelial protein tyrosine phosphatase, ectodomain and transmembrane domain, fused to the N-terminal Venus fragment) (domain or fragment)	6.5	2 to 3 fold	–	–
B1	–	–	7.7	6 fold

From paper PMC5604967, “Defining the molecular basis of interaction between R3 receptor-type protein tyrosine phosphatases and VE-cadherin” (PLoS ONE, 2017)
